In a protein production outcome set (Wang et al. 2014):

Test: label from the status in PepcDB records

Sequence | protein production
MHCALLYSGGKDSTLAALLLDPFYDVTLVSGSFGVRDTDPAQESATAVGFDHVTVDLDPDVAHDAVKQMFDDGYPRNGIQRVHEHAVETVARADWVADADGLGTLDAVADGTRRDDRVPTVDRPLAQSIEDRFDVDYLAPLAGIGRGAIDAMAADRLVVESGPSAEIPKADYEVELRALLRKRYGEGAVADVFPEHTQSRVQGLR | failed
MHELIRDITLCILFAWMLGLLAHFSRQPLILAYLIAGFCIGPFGAGWVKSQESISVISELGLIFMLFMIGLEIDLKKIVRAGKVILFAAGGQLPGGCLLGVLFFAGIGLSLGGGHFDAVYLCIACALSSTVIIVKVLYEKRELDTLPGRITLGVLVLQDIFAILFLAVQPSLANLQVSVILLSIGRVAVLVAAALLVSRYVLPRLFHQIARRPELILLGALAWCFLVAETAERLSLSREMGALIAGVSLSTFPYALDVTAKVTTLRDFFITLFFVALGMTIPVPGLSVIGLALMIAAFTVVSRLVTTFTPLYLMKQGLRASLLPALNLAQISEFSLVVIQTGVTDNHIAAETANAASFAFVVLAVLSTFVMTRSDEIARWAIGPLKRIGLRDLDHGNGHAEEGHEGGHGEARRIVILGFFRAASALLAEIERQAPVLLEQITVVDFNPNVYQTLLSRGLHVIYGDISSADTLLHAGVGKSEMIILSVPDALLKGASNEKLVRHVRTLNPTAMIVATADLLSDVGELYEAGASYVTVTRLSDAHELFTVIEAAQAGLLADKRAELDLRLGERREVLP | failed
MHESRLLLVMHWTEILAVFSFAVSGLAEARRRRLDAVGAFIVAFLTAFGGGTLRDLLLDRRPFYWVEHEQYLLALFVMSLFANRVIRLVSQLVSDRVLIVADAVGLGLFGVLGTQLALDAGVPVFVSVMMGVITAAFGGLLRDVVCNEIPMLLRDNRPYATCAFLGCWLYVGLTHTSLQPSVAVVVATLAIVAGRLATLRWNITLPR | failed
MHHLILGYGYCGYYLAQELLGHHQQVTVVSRQLKKELELSKLQHISHDLEYPFHWSEPDSIIYYLIPPPSQGTCDTFLQQFLNQSSLNAKKIIYFGSSGVYGNHQGAWVDELSACIIDSPRQQRRLDAEQQWLAYCQQHNKELSLLRIAGIYGPNRIPADAAKSKIPIIKPTEAPFTNHIFVKDLALIAYLLGQKQTTSAVYNVADGNPTHMGELQQTVANALGIESASYESFEQAWEKASPMKREFMRASKRLKIDLLKTALGEDIQFTSLYDAVKQSL | failed
MHHQSVLHSGYFHPLLRSWQTAASTVSASNLIYPIFVTDVPDDVQPIASLPGVARYGVNQLEEMLRPLVEAGLRCVLIFGVPSRVPKDEQGSAADSEDSPTIEAVRLLRKTFPSLLVACDVCLCPYTSHGHCGLLSENGAFLSEESRQRLAEVALAYAKAGCQVVAPSDMMDGRVEAIKAALLKHGLGNRVSVMSYSAKFASCFYGPFRDAAQSSPAFGDRRCYQLPPGARGLALRAVARDIQEGADMLMVKPGLPYLDMVREVKDKHPELPLAVYQVSGEFAMLWHGAQAGAFDLRTAVLETMTAFRRAGADIIITYFAPQLLKWLKEE | failed
MHHWVQASSSDFSGTPPQARSGHTAVNVGKSMVVVFGGLVDKKFLSDIIVYDIENKLWFEPECTGSESEGQVGPTPRAFHVAITIDCHMFIFGGRSGGKRLGDFWVLDTDIWQWSELTSFGDLPTPRDFAAAAAIGSQKIVLCGGWDGKKWLSDVYVMDTMSLEWLELSVSGSLPPPRCGHTATMVEKRLLVFGGRGGGGPIMGDLWALKGLIDEERETPGWTQLKLPGQAPSSRCGHTVTSGGHYLLLFGGHGTGGWLSRYDVYYNDTIILDRVTAQWKRLPIGNEPPPPRAYHTMTCIGARHLLIGGFDGKLTFGDLWWLVPEDDPIAKRSSVPQVVNPPEIKESERELDKERGQDGFSIVDLQQKMGISVSSGLRLQIPEESEDQEFVELGTRLIEGDVVDERASMIQMAAQALRQHWKQSTPRTLQLKELGSLLRDYQRLVTRIFTTQSSLTSADFGLPGTKTFTFYHIKSSSELRINDISKLLEEYKTLVI | not failed
MHIKIDDLTGRQVVSLVNEHLHSMTLMSPPESIHALGLEKLRGPEITFWSAWEGDELAGCGALKELDTRHGEIKSMRTSASHLRKGVAKQVLQHIIEEAEKRGYERLSLETGSMASFEPARKLYESFGFQYCEPFADYGEDPNSVFMTKKLLEHHHHHH | not failed
MHIPDGIIPLWQCAVYWAVALINIGIFFYIFSKKPQKERRIVGTGLFAAAAAAVSSISVPSPFGVPVHFFLIPLAAILLGPLTAVIVATLCLVIQFFILGMGGLTSMGANILTMGIGLGVGTYAVYSVVSELDRSLAVFTATFFGIMVATVFHIMILLAAGVAGPEMLMATLIPFYIFVGVIEGAANIFIVSFLERMKPELTMMERV | failed
MHKEENMSDLYLKLVNTPVGKTAAQSLGLPSPAPLKRLKRVDQPFIEGDVLIGAGNGARAIATLGSIVGASPATLHHATGPETLAESAKTSNKAQALDITGEVSGKFSALIFDASGLQKPDELRALYDFFHPTIRKLATNGRVLVIGQDPHTCRKAPQAAAQQALEGFVRAVGKEIGKKGATANLVWIAPNAENQLDSSVRFFLSPRSAYVSGQVVRIGKADEAKATNPVAPLAGKVALVTGASRGIGAAIAETLARDGATVIGLDIPPALEELQKVTGALKGKALACDITDEKAPKLIADFIEKETGGVDFVIHNAGITRDKTLGNMPEHFWDMTIAVNLTAEELIDEELAERKLMRENGRIVCISSISGIAGNFGQTNYSCAKSGVIGYVEAMARHLKNGITINAIAPGFIETQMTAAMPFTIREAGRRMNSLSQGGQPVDVAEAIAWYCNPASAGVNGNVVRVCGQSLIGK | failed
MHLFIEGEIEHLVFPGLKSYIVPVWDLRTYQIFDMALRVHKNIQQRDMVIGRNLGNWILRGLDRMKPSAQVLLPKNTEPSIDKAKRVLQSTRLKPHVNTQTPQNREVDRNLFMSLRNFRSKYPIASMMMIKPPRSTGTTTQYRPYSVGESSLIKPIYARGGFNSVIRKDILQWMVQKR | failed
MHLYDKRPGGGASFSQILGQAKNRQGIFFNTTFAVMGHVAKASGRVTETDIRIATLLMDQMRLTGDARKEAQQAFREGKEPDFDLCSSLQAFRAVTQGRQELVQMFIEIQIQTALSDGELDAAEHAILMTVAQELGYGRLEHHHHHH | failed
MHMQVIQLHHPYEPNQIPNEEVVMVLGFFDGVHKGHQKVIETGKKIAEEKGLKLAVMTFNQHPSIVFQKVLPENMKYLTSLEQKERLMANLGVDILYIVEFTSAFAQLKPQDFVDQYIVNLNSAVAVSGFDYTYGPKEIAGVKQLPTYAQGRFEVVTVPKEEMTGAKISSTRIREKMEAGEMEEVTELLGYIYETEGTVVHGDARGRLLGFPTANVKVKSTVRLPRIGVYAVQIEVGGKWYVGMGSIGHNDTFGEGRDLTVEVYILDFHQDIYGEQVVVRWNHYLRDQVKFNGAEALIDQLKQDERDTADYFQQSEDK | failed
MHNFSFDVDESYAKKNNEILRDAKRLQISALCLGLILGGGAVAVYLFSNGAVWMWMIAIVMVFLALLSFIMIPVIPRQMGNAQTLYDDYELAPAIIAEVNPRDVVLLALVNRNVNPEAKPEWALATRTIVRVGAHERRLGERIPSVAITGRRTVKDQDHWDEISPMPITWGTTDKDIIREAEKTIPHELWAKLEKNRGKLEDVKKTPNNLFKL | failed
MHNSIMNKVAVIGLGNIATRHRRNLKSLFPNVELLVMSASGRIPTEEISDSDGIVTSIEALIEANVELVIVASPAPFHAQHSIPLIEAGIPTLIEKPVTTTREDANAIKKALNEHGTPVAIGYCLRYLPSAQKLKILLDHKAIGTLYNAHIEIGQYLPDWRPSKNYRECVSANEKLGGGALFELSHELDYAQWLLGPLALQHAILRSSDELDLQVEDMADILTLTESGAVASIHLDFLQRKAHRQCSFIGSEGRIDWDLIQNQLTLTTAAEAKVIYSEPEWDKNQMYLAMVTDFIQMIKQQPHNCIAVTDASFTVDLISQIKQKAY | failed
MHPDTTLILIAAASIVLLVLLVTRLKLHPFLALMVAAAFLGLASGLAPTDAVKTFQKGFGNILGSVGLVVGLGSMLGGLLLNTGGADRIANAFVGRGSTVWLPTSICAAALLIGMPHLFDVSFVMLVPLVFAIAKRTGSHLMRVGLPMAAGLYVSHGFLLPHPSPTLALAIYHGDAGRAILFGFLLAIPTAILSGPLLTSFAMRWFKDPIDITHSPIMTAAGRSDVTTLDNAPRLPVVLLTVLLPPGLMLLRTLLADHVPEGAARAFLDGIGNPIVSLAIAVLFAIWALGVRSGRSLGEIQKLLGKSLAPAAGVILIVGAGGGLKEMLLGTHIGDMIASGAAQWAISPLVLAWVIAALMRIAVGSATVATVTAAGLMAPVQALHPEISPELMTISVATGGLMLSHLNDSGFWLFKEYFQLTVAQTLKSWTLMVSVQSALGLAGVLLIDAVIR | failed
MHPLLRRLDLNLLLVFDALYRHRNVGTAASELAISASAFSHALGRLRQGLDDELFLRQGNRMQPTQRAEHLAAAVAAALRALGEGLEEWRPFVPGQSQRTFVFAATDYTAFALLPPLMNRLQHSAPGVRLRLVNAERKLSVEALASGRIDFALGYDEEHERLPEGIQAHDWFADRYVVVARRDHPRLAGAPTLEGYLAERHAVVTPWNEDSGVIDRLLARSGLRREVAVQLPTVLAALFLAGSTDFLLTAPRHAARALAEAAGLALYPAPFDIPPYVLRLYSHVQHVGRDAHAWMIGQLKGLDISRTG | not failed
MHQDVLLGGRYRLGAQLGGGSEAYVNEAWDLLSGKTVAVKIFRSTNSLDNAPFRRELEIHGRLRHRNIVRILDSGDTDSRGDGAGVGQDNRHFVVMELVAGKDLRWILQDKPASPEQTAAWMTDVARALAHVHRRGIVHNDIKPGNILVDFASDPGGPGVAKLADFGIALNGRHGVPNSSSGTPHYLSPEEVCGGTSTTASDIYSLGLVALECLTGTKAFPGPPLESMVARTLGEPRIPGTVRRRWSMVLHAMTDPDPAGRPSASQTVGMLRRLSW | failed
MHRGKETSTKPKKPVTRRKDFSASGKGKKRKKRRVHKMKPWQIALICVGAFIAALLAFGLMYVYAKWSKIDTKSIKADDIIINEEVKKNKNVDLGDGYTNVALFGVDSRDGDLGEGNRTDCIIVASLNNKTKEIKMVSVYRDTLLDLSEGTYQKCNAAYSYGGPVLAINMLNMNLDLDIQDYVTVDFGAIADAVDLLGGIEIEVTEEELPYINQYIPETANSAGKAANLLQSAGLQKLDGTQATTYARIRSTAGGDFTRTERQRLVIEKMFEKAKGADIGTLNKIIDKVFPQVSTSFTLPEILKYASAYSEYKLVGNMGFPEDKYTDMLSEIGSVVVPDNLVSNVTKLHEFLFGITGYVPSSTVQTVGSNISYTASAKKSSGTGSQSSYDSGESYNDSGYTDNSGNYEGGNTGGNYDDGSMSGNSGNTGNSGETGGVGGNGSTGDNTGGTTVEPPVVPDGGTDSGGGQTEAPPEGTVQ | failed
MHRLYRFCLFGMALLSSIAASAAPTDQELIAALYAKVQARQDWQAQARQCPGDNMPARAAIRATQANRCETPEQLGACLQRCEAGDGNDCYWLATTLQQAKGPAEGYEPLYQRACSLGLVSGCTNRAAGMLTADADSQGTRHCAVQTFNKACELDDPWACTMYGFHLSRGIGVAPDADLALKVLDKSCKHGPADPACSGARQLQEDIRNALEAAKR | failed
MHRVHGTLHASFTIECRNMFKRFFLALIGVGILLSESTQASESPPYSMVLLTENFPPFNMAVDGKNFAQENNIDGIAAEVVREMFKRANIGYSMTLRFPWDRVYKLALDKPGYGVFSTTRLPEREKLFKWIGPLGSYDWIMLARGDSPITLASLEQAKDYRIGAYKGDAIGERLNAMGLNPILMLRDRDNVKKLANGQIDLWAVGDPVGRYLAKLEGVSGFKTALRFNSAELYLAVNKSTPDEIVNRLQAALDQMRTEGWVDAVKARYQLEHHHHHH | not failed
MHSDALSWGHGPRLFEVFLEPTCPFSVKAFFKLDDLLAQAGEDNVTVRIRLQSQPWHMFSGVIVRCILAAATLEGGKESAKAVMTAVASHREEFEFEHHAGGPNLDATPNDIIARIERYSGLALAEAFANPELEHAVKWHTKYARQNGIHVSPTFMINGLVQPGMSSGDPVSKWVSDIG | not failed
